Laboratory results: article PMC10374912 (Nature Communications, 2023)

Target: T1, Rtg3-6XHis (recombinant, co-expressed with Rtg1) (C. albicans, UniProt A0A1D8PF20 1-520)
T1 construct: Rtg3, basic helix-loop-helix transcription factor of Candida albicans; also called tagged Rtg3; Rtg3X6his; source: E. coli BL21(DE3), co-expressed with Rtg1 from pColaDuet (pLC1452), purified (Ni-NTA, heparin, SEC)
T1 sequence (looked up): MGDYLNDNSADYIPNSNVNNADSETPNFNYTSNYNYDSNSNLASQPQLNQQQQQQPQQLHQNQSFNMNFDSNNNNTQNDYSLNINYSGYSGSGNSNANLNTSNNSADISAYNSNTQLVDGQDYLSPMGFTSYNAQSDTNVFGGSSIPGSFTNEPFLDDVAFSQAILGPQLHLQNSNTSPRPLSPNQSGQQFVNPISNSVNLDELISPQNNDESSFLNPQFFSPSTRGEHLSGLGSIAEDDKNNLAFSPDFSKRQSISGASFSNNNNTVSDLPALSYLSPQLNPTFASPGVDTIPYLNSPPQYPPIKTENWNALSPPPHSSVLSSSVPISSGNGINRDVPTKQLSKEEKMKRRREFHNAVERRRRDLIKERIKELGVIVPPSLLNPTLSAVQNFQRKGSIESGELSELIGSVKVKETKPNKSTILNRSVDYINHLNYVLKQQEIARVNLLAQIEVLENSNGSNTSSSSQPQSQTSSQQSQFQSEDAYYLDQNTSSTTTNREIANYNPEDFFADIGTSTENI
Assay: SEC; Rtg1 and Rtg3-6XHis co-expressed in E. coli, co-purified by Ni-NTA and heparin, then HiLoad 16/600 Superdex 200 pg; 25 mM HEPES-NaOH pH 7.8, 300 mM NaCl, 5% glycerol; ambient temperature; fractions on SDS-PAGE, Coomassie
Conditions: both partners purified

B1: Rtg1 (recombinant, co-expressed with Rtg3-6XHis) (natural protein, C. albicans, UniProt Q5APP3 1-274, looked up)
chain: MSQFGEFYDTYSVENNQQYDTDLNNSTNTPIVQSKQRNDNIIPSINIKQEDFDSVLSGSLDVKKQLSSSLNTAGVGIGSSYGNGGISKPQSRRNSTYIKSHEGSDNEDEDDQNDKDVGNERKRRDNINDKIQELLTLIPSEFFQSNTDNNTKTGTKVVKENSPEDDAVKNSGTKDGKPNKGQILTKSVEYLQYLQNLIDENNRKEVELIMRLKTLELKAANRPSENIPIRIGYTSAEKALGEIGVGPCSEEYFKNVLIKSASTSKSGRRGSTSG
notes: Rtg1, basic helix-loop-helix transcription factor of Candida albicans; untagged; source: E. coli BL21(DE3), co-expressed with Rtg3-6XHis from pColaDuet (pLC1452), purified (Ni-NTA, heparin, SEC)
stoichiometry N: ~1
